Results on 6 molecules are retold here after PMC6530996, “HspB1 phosphorylation regulates its intramolecular dynamics and mechanosensitive molecular chaperone interaction with filamin C” (Science Advances, 2019).

Non-standard residues stand in square brackets, D forms with d. No end group written: not given here. pS = N[C@@H](COP(=O)(O)O)C(=O)O

Data set [1] concerns HspB1_84–170. As to the kind of experiment: crystal structure of HspB1_84–170 with PPR peptide. The format is binding, human. The conditions noted are these: X-ray, 5 mM peptide, space group P12_11, 2.1 Å. The source says: We next carried out crystallographic trials, using a strategy of mixing peptide mimics of the PPR, varying in length and degree of phosphorylation, with a well-ordered ACD construct (HspB1_84–170). […] The monomers within each dimer differ at their N-terminal ends: The β2 strand of one is intramolecularly hydrogen-bonded to its own β3 strand, whereas in the other these residues are extended and stabilized by contacts with a β4-β8 groove of a neighboring dimer (Fig. 3, A and B). This groove also acts as a binding pocket for an intrasubunit interface within the C-terminal region (fig. S4B) ([29]).
Crystals were obtained following initial screens using HspB1_84–170 (18 mg ml^−1) with a fourfold molar excess of one of several peptide mimics of the N-terminal region varying in length and degree of phosphorylation. […]
Diffraction data were integrated using iMosflm and scaled and merged using Aimless in the CCP4 suite with truncation at 2.1 Å. Phases were determined by molecular replacement using Phaser with a previous HspB1 x-ray structure input as a search model (PDB 4MJH, modified by removal of flexible loops, bound C-terminal peptide, and β2 strands). […]

Data set [2] has as its target filamin C (FLNC) domains 18-21, 1943-2408 (UniProt Q14315). As to the kind of experiment: gas-phase collisional dissociation, tandem native MS. The following applies: reference: unphosphorylated HspB1 80-88 peptide; sites S82.
The nature of data set [3]: native MS of HspB1_77–171 oligomeric state. The format is physicochemical. The following applies: 10 μM, 200 mM ammonium acetate pH 6.9, 10-fold molar excess DTT. The source says: To test this hypothesis, we recorded mass spectra under conditions preserving noncovalent interactions. […] The combined NMR and mass spectrometry (MS) data are therefore consistent with phosphorylation modulating an order-to-disorder transition by β2 and the PPR that leads to oligomer dissociation via rearrangement of intradimer contacts.
A pET28d(+) vector encoding human HspB1 ACD (residues 84 to 171) was transformed into Escherichia coli BL21(DE3) cells (Agilent) and expressed and purified as described previously ([29]). For crystallography, residue K171 was deleted using a site-directed mutagenesis kit (Agilent) and HspB1_84–170 was expressed and purified as described. […] Concentrations were determined by using a bicinchoninic acid assay (Thermo Pierce).
Because HspB1 can form disulfide-linked dimers, experiments involving the ACD were performed in the presence of 10-fold molar excess DTT. […] Native MS and IM-MS data were recorded on a Synapt G1 mass spectrometer (Waters) modified for the transmission of intact noncovalent protein complexes. HspB1_77–171 variants were analyzed at a concentration of 10 μM in 200 mM ammonium acetate (pH 6.9). […]

The target of data set [4] is T1, HspB1_(84–170), ACD construct for crystallography (human, UniProt P04792 84-170).
T1 construct: human HspB1 ACD, residues 84 to 170 (K171 deleted from the 84-171 construct); Dimer in the crystal (four dimers in the asymmetric unit); The residual Gly-Ser overhang that the methods tell of 'both proteins' may also stand on this construct; also called HspB1 ACD
T1 sequence (P04792 84-170): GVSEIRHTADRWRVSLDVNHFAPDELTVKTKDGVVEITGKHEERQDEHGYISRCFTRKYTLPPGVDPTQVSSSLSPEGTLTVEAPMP
As to the kind of experiment: crystal structure; HspB1_(84–170) 16 mg/ml with 5 mM peptide in PBS pH 7.0; 22% PEG 3350, 0.02 M sodium potassium diphosphate, 0.1 M bis-tris propane pH 7.5; 2.1 Å, space group P12_(1)1. The following applies: both partners purified.

Data set [5] concerns the target T2, human FLNC domains 18 to 21 (FLNC_(d18–21)), EEF-tagged (human, UniProt Q14315 1943-2408).
T2 construct: human filamin C, domains 18 to 21, residues 1943 to 2408 of UniProt Q14315; Modified pET23a/EEF vector; No cleavage of the tags is described; also called FLNC fragment; source: E. coli BL21(DE3) pLysS, purified (HisTrap, SEC Superdex 200); not shown: EEF, C-terminal, kept
T2 sequence (looked up): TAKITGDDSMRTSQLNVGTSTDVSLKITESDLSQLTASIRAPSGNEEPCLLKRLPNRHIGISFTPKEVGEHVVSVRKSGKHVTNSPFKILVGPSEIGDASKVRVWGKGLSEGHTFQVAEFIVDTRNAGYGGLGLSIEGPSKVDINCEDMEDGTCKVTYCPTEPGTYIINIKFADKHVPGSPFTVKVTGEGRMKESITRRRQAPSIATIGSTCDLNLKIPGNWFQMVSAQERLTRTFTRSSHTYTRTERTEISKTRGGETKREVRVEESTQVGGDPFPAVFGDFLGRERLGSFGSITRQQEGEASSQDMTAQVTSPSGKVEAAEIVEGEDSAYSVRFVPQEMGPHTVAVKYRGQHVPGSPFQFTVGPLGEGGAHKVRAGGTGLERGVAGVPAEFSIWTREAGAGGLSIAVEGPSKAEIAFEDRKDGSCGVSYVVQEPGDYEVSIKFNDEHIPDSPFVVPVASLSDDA
Briefly: native MS; native IM-MS of mixtures of FLNC_(d18–21) or FLNC_(d18–21,ΔI) with HspB1_(84–171), HspB1 peptides or an excess of control peptides; 200 mM ammonium acetate pH 6.9. The conditions noted are these: both partners purified.

Data set [6] has as its target T3, FLNC_(d18–21,ΔI), FLNC domains 18 to 21 lacking the d20 insertion (human, UniProt Q14315 1943-2408, excluding 2163 to 2243).
T3 construct: human filamin C, residues 1943 to 2408 of UniProt Q14315 excluding 2163 to 2243; The results speak of 82 insertion residues; 2163 to 2243 are 81; source: E. coli BL21(DE3) pLysS, purified (HisTrap, SEC Superdex 200)
T3 sequence (looked up): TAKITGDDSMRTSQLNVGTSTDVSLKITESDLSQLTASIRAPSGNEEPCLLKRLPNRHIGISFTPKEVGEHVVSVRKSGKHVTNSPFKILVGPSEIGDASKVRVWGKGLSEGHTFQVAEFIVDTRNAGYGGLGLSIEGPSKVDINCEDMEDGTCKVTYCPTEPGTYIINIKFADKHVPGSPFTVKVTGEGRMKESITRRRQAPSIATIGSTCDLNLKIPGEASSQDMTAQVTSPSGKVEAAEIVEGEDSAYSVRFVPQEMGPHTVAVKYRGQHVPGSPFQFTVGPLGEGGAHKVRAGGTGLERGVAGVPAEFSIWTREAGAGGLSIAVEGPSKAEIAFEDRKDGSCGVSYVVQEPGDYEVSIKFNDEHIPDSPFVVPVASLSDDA
The data set is described as above. The conditions noted are these: both partners purified.

Data set [7] concerns the target T2, human FLNC domains 18 to 21 …. As to the kind of experiment: native MS; titration: FLNC_(d18–21) constant at 5 μM, peptide 5 to 160 μM, 200 mM ammonium acetate pH 6.9, acetonitrile vapor; fit with three equivalent binding sites (UniDec). The conditions noted are these: both partners purified.
The target is the same in data set [8]. Briefly: cell-based or functional assay.

filamin C (FLNC) domains 18-21, 1943-2408, sequence (Q14315 whole entry, looked up, tested part not stated): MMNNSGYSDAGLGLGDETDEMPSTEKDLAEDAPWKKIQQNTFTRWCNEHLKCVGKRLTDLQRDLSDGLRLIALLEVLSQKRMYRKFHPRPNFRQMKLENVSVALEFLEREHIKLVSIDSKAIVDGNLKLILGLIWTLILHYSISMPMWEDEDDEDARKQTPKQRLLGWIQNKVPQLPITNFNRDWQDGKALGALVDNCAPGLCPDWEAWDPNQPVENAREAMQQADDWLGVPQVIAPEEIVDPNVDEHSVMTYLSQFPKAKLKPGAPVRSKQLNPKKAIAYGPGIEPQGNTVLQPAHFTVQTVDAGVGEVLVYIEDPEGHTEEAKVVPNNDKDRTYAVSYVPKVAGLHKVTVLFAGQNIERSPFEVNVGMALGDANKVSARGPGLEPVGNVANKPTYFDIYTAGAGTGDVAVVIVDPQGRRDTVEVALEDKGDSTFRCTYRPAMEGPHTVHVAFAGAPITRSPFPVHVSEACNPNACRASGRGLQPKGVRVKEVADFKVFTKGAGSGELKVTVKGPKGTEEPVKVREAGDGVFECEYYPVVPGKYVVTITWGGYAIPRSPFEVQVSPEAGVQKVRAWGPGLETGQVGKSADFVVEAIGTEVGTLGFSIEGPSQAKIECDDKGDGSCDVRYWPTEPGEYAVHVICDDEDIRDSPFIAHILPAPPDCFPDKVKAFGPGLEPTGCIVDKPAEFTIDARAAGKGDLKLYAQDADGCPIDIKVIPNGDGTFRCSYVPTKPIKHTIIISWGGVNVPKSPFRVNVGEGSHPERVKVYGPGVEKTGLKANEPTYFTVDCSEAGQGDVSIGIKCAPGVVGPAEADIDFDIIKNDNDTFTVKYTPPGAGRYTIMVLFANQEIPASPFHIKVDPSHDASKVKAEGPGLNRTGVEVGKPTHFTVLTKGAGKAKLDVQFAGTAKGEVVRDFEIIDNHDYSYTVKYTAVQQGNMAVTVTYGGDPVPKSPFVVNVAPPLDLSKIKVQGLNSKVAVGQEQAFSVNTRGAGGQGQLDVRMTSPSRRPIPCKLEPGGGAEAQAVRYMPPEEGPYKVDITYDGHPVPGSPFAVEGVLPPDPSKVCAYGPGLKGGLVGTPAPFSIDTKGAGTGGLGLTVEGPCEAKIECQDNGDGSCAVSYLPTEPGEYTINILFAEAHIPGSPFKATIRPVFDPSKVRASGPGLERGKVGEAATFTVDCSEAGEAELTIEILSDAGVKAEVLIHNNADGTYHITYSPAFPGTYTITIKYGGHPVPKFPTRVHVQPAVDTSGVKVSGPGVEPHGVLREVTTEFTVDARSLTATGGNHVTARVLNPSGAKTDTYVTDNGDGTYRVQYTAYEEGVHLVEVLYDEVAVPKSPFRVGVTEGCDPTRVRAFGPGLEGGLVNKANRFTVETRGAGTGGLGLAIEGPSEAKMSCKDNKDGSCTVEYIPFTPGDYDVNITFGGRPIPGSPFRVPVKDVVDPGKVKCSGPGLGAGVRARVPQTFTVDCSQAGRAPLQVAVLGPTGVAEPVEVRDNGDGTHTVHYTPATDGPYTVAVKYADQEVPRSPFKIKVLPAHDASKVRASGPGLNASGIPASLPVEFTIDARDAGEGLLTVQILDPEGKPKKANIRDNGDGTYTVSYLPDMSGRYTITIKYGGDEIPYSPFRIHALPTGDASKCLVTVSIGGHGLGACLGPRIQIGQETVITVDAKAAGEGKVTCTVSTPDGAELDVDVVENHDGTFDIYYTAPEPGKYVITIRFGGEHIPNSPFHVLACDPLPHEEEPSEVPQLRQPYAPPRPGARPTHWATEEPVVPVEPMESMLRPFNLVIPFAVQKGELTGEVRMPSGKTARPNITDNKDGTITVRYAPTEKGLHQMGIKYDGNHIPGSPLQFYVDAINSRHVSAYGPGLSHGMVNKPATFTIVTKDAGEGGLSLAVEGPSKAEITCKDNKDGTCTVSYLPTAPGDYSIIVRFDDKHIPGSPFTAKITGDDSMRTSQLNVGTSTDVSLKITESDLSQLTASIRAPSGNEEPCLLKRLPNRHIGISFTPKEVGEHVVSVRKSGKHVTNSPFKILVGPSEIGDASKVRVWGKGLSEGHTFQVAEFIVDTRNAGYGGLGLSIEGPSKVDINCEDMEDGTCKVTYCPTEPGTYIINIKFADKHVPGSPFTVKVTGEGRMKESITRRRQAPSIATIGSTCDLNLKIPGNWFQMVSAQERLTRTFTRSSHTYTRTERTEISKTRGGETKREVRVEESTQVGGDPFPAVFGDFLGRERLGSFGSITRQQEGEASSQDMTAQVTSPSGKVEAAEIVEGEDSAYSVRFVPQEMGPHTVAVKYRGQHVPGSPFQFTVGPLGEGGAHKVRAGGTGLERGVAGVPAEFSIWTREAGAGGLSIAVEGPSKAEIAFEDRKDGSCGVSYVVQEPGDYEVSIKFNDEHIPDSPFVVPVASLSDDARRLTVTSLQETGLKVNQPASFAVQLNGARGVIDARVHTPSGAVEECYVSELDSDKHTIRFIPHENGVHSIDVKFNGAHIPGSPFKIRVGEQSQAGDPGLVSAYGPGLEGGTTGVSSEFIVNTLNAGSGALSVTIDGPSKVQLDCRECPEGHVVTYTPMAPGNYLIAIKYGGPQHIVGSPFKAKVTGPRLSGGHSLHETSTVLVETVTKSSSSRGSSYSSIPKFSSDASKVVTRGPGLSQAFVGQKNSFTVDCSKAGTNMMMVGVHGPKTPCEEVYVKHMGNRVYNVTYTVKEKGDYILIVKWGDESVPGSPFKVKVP

Take “ALSRQL^PSSGVSEI [^P82HspB1_76–88, Peptide from human HspB1 phosphorylated at S82, captured in part in crystal structure]”: the “binding to HspB1_84–170 in crystal” value in data set [1] is given as “structure of HspB1_84–170 bound to ALSRQL^PSSGVSEI”. In the case of “HspB1 (Hsp27) 80-88 (from UniProt P04792) pS82 HspB1 80-88 peptide”, in data set [2], the “other: inflection point(s) of breakdown curve” value is “stronger; reference ≈55 and ≈110”.

Regarding “HspB1_77–171: Human HspB1 ACD extended at the N-terminus to encompass the principle phosphorylation region (PPR)”, in data set [3], the oligomeric state result is “populates a monomer-dimer equilibrium”.

In the case of “^2PHspB1_77–171: Human HspB1 ACD and PPR with phosphomimic substitutions S78E and S82D”, the oligomeric state entry in data set [3] is listed as “phosphomimicry shifts the oligomeric state toward the monomer”.

B1: ^P82HspB1_(76–88), peptide mimic of the PPR phosphorylated at Ser82 (peptide)
peptide: ALSRQL[pS]SGVSEI
notes: human HspB1 residues 76 to 88; Only 3 to 6 residues of the peptide could be built in the density; also called PPR peptide; source: synthetic peptide, bought: Biomatik
As to B1, the binding result in data set [4] is “binds”.

B2: HspB1_(80–88) peptide (peptide, UniProt P04792 80-88, looked up)
peptide: QLSSGVSEI
notes: The methods say that N termini were acetylated 'when the N-terminal residue was Glu'; this peptide begins with Gln, so whether it was acetylated is open; also called unphosphorylated peptide; source: synthetic peptide, bought: Biomatik
In the case of B2, the “stoichiometry N” value in data set [5] is no more than 2. Also, the binding result in data set [6] was “binds”. Moreover, in data set [7], the Kd came out at 130 ± 17 µM and the “stoichiometry N” value is no more than 3. Besides, in data set [8], the “activation required for the transition of unfolding intermediate B to final state C of FLNC_(d18–21) with one peptide bound (coulombically steered unfolding, IM-MS)” value was roughly 60 V.

In general, stoichiometry N refers to the number of molecules, sites or subunits per partner or assembly. The term Kd denotes a measure of binding affinity in units of concentration.
